In paper PMC9023281:

Biological target: Polθ helicase domain (amino acids 1–894), O75417
Test: SEC; calibrated size exclusion chromatography of purified Polθ-h
Conditions: remark: other sources report otherwise

stoichiometry N: 4
B1: Polθ helicase domain (amino acids 1–894), O75417 1-894 (domain or fragment)
chain: MNLLRRSGKRRRSESGSDSFSGSGGDSSASPQFLSGSVLSPPPGLGRCLKAAAAGECKPTVPDYERDKLLLANWGLPKAVLEKYHSFGVKKMFEWQAECLLLGQVLEGKNLVYSAPTSAGKTLVAELLILKRVLEMRKKALFILPFVSVAKEKKYYLQSLFQEVGIKVDGYMGSTSPSRHFSSLDIAVCTIERANGLINRLIEENKMDLLGMVVVDELHMLGDSHRGYLLELLLTKICYITRKSASCQADLASSLSNAVQIVGMSATLPNLELVASWLNAELYHTDFRPVPLLESVKVGNSIYDSSMKLVREFEPMLQVKGDEDHVVSLCYETICDNHSVLLFCPSKKWCEKLADIIAREFYNLHHQAEGLVKPSECPPVILEQKELLEVMDQLRRLPSGLDSVLQKTVPWGVAFHHAGLTFEERDIIEGAFRQGLIRVLAATSTLSSGVNLPARRVIIRTPIFGGRPLDILTYKQMVGRAGRKGVDTVGESILICKNSEKSKGIALLQGSLKPVRSCLQRREGEEVTGSMIRAILEIIVGGVASTSQDMHTYAACTFLAASMKEGKQGIQRNQESVQLGAIEACVMWLLENEFIQSTEASDGTEGKVYHPTHLGSATLSSSLSPADTLDIFADLQRAMKGFVLENDLHILYLVTPMFEDWTTIDWYRFFCLWEKLPTSMKRVAELVGVEEGFLARCVKGKVVARTERQHRQMAIHKRFFTSLVLLDLISEVPLREINQKYGCNRGQIQSLQQSAAVYAGMITVFSNRLGWHNMELLLSQFQKRLTFGIQRELCDLVRVSLLNAQRARVLYASGFHTVADLARANIVEVEVILKNAVPFKSARKAVDEEEEAVEERRNMRTIWVTGRKGLTEREAAALIVEEARMILQQDLVEM
